# Tested on: MS2 coat protein
# Test: apparent KD of MS2 coat protein, switch ON state; designed switch direction (-1 OFF switch, 1 ON switch): -1; higher = weaker reporter binding
# Conditions: FMN input: 0 or 200 uM; Eterna round: R93 (includes R88 designs)
# Outline: (§1)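 Normalised binding curves from single clusters were fitted, and the median fit for each design is given as apparent KD. The clusters held designed RNA switches transcribed on-chip from Illumina sequencing clusters. These were titrated with SNAP-549-labelled MS2 coat protein (twofold steps from 0.7 or 1.5 nM to 3 µM, 0.8–1.5 h to 10–20 min per step) in 100 mM Tris-HCl pH 7.5, 80 mM KCl, 4 mM MgCl2, without or with constant ligand.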
row,Sequence,apparent KD of MS2 coat protein
1,AAGUAGGUAGGAUAUACAUAGAUACAGAUUCAUGUGGAACUACAUGAGGAUCACCCAUGUAGAAGGACCUAAUA [AJ 40],30.2 nM
2,UAAGGACAUGAGGAUCACCCAUGUGAGGAUAUGCUCUACGAACGUUUAUUUAUGAGAAGCAGAAGGCACAUUUU [try 2],50.4 nM
3,AAAUUGUCAGGAUAUCCUAUAACUCUAAAAUAGAGGAGAUAGGAGAAGGGACAUGAGGAUCACCCAUGUAAAAC [May 86],43.7 nM
4,AAGAAGUGAGGAUAUGCUUGUCGUCACAAAAGUGAUGACGAGCAGAAGGCACAUGAGGAUCACCCAUGUAAAGA [Opal 27],37.1 nM
5,AACAGUACAGGAUAUACAUGAGGAUCACCCAUGUGACAAUUAAGUGGCGUACCACAGUGUAGAAGGGUACUGGA [Ruby 84],93.1 nM
6,AACAGUACAGGAUAUACAUGAGGAUCACCCAUGUAAAAAGGGAGUGGCGUACCACAAAGUAGAAGGGUACUGGA [Moding Maslow revisited (73) 7],36.9 nM
7,AGAAAGUGAGGAUAUUCGGAUAGGAAAACGAAAACCUAUCCGAAGAAGGCACAUGAGGAUCACCCAUGUAAAAA [Mat - Exaclusion 4 - Eli mod - D38],33.2 nM
8,GGAAAACAUGAGGAUCACCCAUGUGAGGAUAUCCAGGAUAUAGAAGGAGGAUAUAGAAGGAGAAGGCACGAAGG [salish99-ex1-18],28.6 nM
9,AAAAAACAUGAGGAUCACCCAUGUGAGGAUAUUGGUAUUAAAGACACCCACUUAAUGGCGAGAAGGCGCAAAAA [Brourd 613 Mod 19 - Jieux - Exclusion 1],25.5 nM
10,AACUGACAUGAGGAUCACCCAUGUCAGGAUAUGAUAUGUAAAAAAAAAAAAAUACUUAUCAGAAGGGACAUGAA [Design 44: Sub-opt CB],15.1 nM
11,ACCAAUGGAGGAUAUACAUGAGGAUCACCCAUGUUUAUCCUACAUAGGUGAAAAACAUGUAGAAGGCCAUAGGA [EX3 237: Super Stable 37],11.1 nM
12,AAAAAACAUGAGGAUCACCCAUGUGAGGAUAUGACGUAAAUAAAGAAAGAAUAAAUCGUCAGAAGGCACACCAA [Mat - Exclusion 1 - Eli mod - D71],31.4 nM
13,"AGGAAACAUGAGGAUCACCCAUGUGAGGAUAUGAACGAAAAUAAAUAAAAAUAAAAGUUCAGAAGGUACAAAAA [66%, Wbt, 5]",23.6 nM
14,GUGUACAGAGGAUAUACAUGGGCAUGAAAACAUGCAUCCUCACAUGAGGAUCACCCAUGUAGAAGGCUGUACAC [Ex2: 706],24.5 nM
15,AAGAAACAUGAGGAUCACCCAUGUGAGGAUAUACAAAAGAAAAGAAAAGAAAGAAGAAGUAGAAGGUACAAAGG [Merenre Nemtyemsaf II],23.7 nM
16,AAAAGUGGAGGAUAUACAUGAGGAUCACCCAUGUGUAAAAAUAAAAACACAAAAGAAAGUAGAAGGCCACAAAA [Ex 3 May 9],24.1 nM

# Tested on: MS2 coat protein
# Test: apparent KD of MS2 coat protein, switch ON state; designed switch direction (-1 OFF switch, 1 ON switch): 1; higher = weaker reporter binding
# Conditions: FMN input: 0 or 200 uM; Eterna round: R93 (includes R88 designs)
# Outline: as §1
row,Sequence,apparent KD of MS2 coat protein
1,AAAAAACAUGAGGAUCACCCAUGUCCUCGGACGUGAGGAUAUGUACAGACUUCGGUCUGUACAGAAGGCACGUAAA [SS1 - 1042],492 nM
2,GAAAAACAUGAGGAUCACCCAUGUAGAAAUAUGGGAGGAUAUACAAAGACGAAAGUCAAAGUAGAAGGCCUAAGAG [Garnet 22],31.8 nM
3,GAAGACGUAGGAUAGGAUAUGUGAAUAAUUACAUGAGGAUCACCCAUGUCCAUUUAUAUGGGAACAUAGAAGGGUUUUCGUUAUC [SameState2 Malc#9],341 nM
4,AACAGACAUGAGGAUCACCCAUGUAGAAUUAUGGGAGGAUAUACAAAGACGAGAGUCAGAGUAGAAGGCCUAGGAC [salish99-ss1-163],20 nM
5,AAAAAACAUGAGGAUCACCCAUGUCUUCGGACGUGAGGAUAUGUACAGACUUCGGUCUGUACAGAAGGCAUGAAAA [SS1 - 1058],176 nM
6,AACAAUCUAUCUGAGGAUAUGUGUCGAAAGACAUGAGGAUCACCCAUGUGAAAACAUGAAAAGACACAGAAGGCAGAUAGAUUGA [SS2: 1154],40.2 nM
7,CUACAACAUGAGGAUCACCCAUGUCGUAGAAAUCAAGGAUAUGGGUCGGUAACAUGCGUACCAGAAGGUGAGGAAA [Rebicequ],29.3 nM
8,ACUUCACAUGAGGAUCACCCAUGUCAGGCCGGACUAGGAUAUUAUCAAGCAGCGUAACCAUAAGAAGGAGUAGGAA [JR_SS001_Sub313],57.7 nM
9,"AAACCACAUGAGGAUCACCCAUGUAAGAUAUACAUAGGAUAUGCGAAAAGAAACAAAGAAGCAGAAGGGUGGAAAA [75%, Ex sub1, 15]",100 nM
10,UGGAGACAUGAGGAUCACCCAUGUGAGAAGAGGCGAGGAUAUCGAAAGAAAGAAGAGAAACGAGAAGGCGCGAGAA [salish99-SS1-033],13 nM
11,AAAAUACAUGAGGAUCACCCAUGUGAAAAUAUGGGAGGAUAUACAAACACGAAAGUGAAAGUAGAAGGCCUAAAAA [SS! MT 15],51.6 nM
12,AAAAUACAUGAGGAUCACCCAUGUGAGUCGAACGCAGGAUAUGCCCGUUGAAAAGGGCGGGCAGAAGGGUGCCGAA [SameState1-IV],34.4 nM
13,GGUACAUCUAGUUAGGAUAUCAGAUGUAAGACAUGAGGAUCACCCAUGUCCUAAGAAUAGGUAACUGAGAAGGAACAGGGAGUCC [JR_SS002_Sub417],36.5 nM
14,AAAUAACAUGAGGAUCACCCAUGUCAAAUAAAUCGAGGAUAUGGGCCCGAGUUCCGGGAGCCAGAAGGCGAAAAGA [Ceusrete],28.9 nM
15,AAAUAAAAGACUAAGGAUAUGUCGCAUGACACAUGAGGAUCACCCAUGUGGUAACACAGAGGGUGGCAGAAGGUAGUCAAAAAAC [Mod 1 of Pariah 6 (Round1) by Hyphema],45.8 nM
16,UAAAAACAUGAGGAUCACCCAUGUGAGAACAUGGGAGGAUAUACGAGGACGAAAGUCAAAGUAGAAGGCCUAAAAG [Garnet 84],272 nM
17,AAGAAUUAAACGCAGGAUAUGUACCCACGUACAUGAGGAUCACCCAUGUGCCUAUAAGGGUCGAGGCAGAAGGGCGAUAUAGAAA [Reteriusge],15.8 nM
18,AAUAUAUUAUCUGAGGAUAUCAUAGGAAAAACAUGAGGAUCACCCAUGUGGGAAACCUGGUCGGGUGAGAAGGUGGAUAAUAUAU [Samwise Clockwise 33 - Jieux - Same State 2],58.7 nM
19,AGGAAACAUGAGGAUCACCCAUGUAAAAAUAUGGGAGGAUAUACAAACAAGAAAGUCAGAGUAGAAGGCCUAAAAG [Garnet 7],73.7 nM
20,GGUACGGCUAGUCAGGAUAUCAGGCGUAAGACAUGAGGAUCACCCAUGUCCUAAGAACAGGUAACUGAGAAGGGACAGGGCGUCC [JR_SS002_Sub414],28.8 nM
21,AGGAGACAUGAGGAUCACCCAUGUGAGAAGAGGCGAGGAUAUCGAAAGAAAGAAGAGAAACGAGAAGGCGCGAGGU [salish99-SS1-023],23.6 nM
22,UGAAGACAUGAGGAUCACCCAUGUGGGAAUAUGGGAGGAUAUACAAAGACGAGAGUCAGAGUAGAAGGCCUAGGAU [salish99-ss1-96],36.7 nM
23,GAAAAACAUGAGGAUCACCCAUGUAGAAAUAUGGGAGGAUAUACGAAGUCGAAAGUCAAAGUAGAAGGCCUAAAAG [Garnet 28],31.3 nM
24,"AUAAAAGAAGCGAAGGAUAUCCAACUCAAAACAUGAGGAUCACCCAUGUAAAGAAAUAAAAAAUGGGAGAAGGUCGCAAAGAAUA [73%, More Fisker Same State 2, D3, 14]",582 nM
25,GAAGACAUAGUUCAGGAUAUAGGAAUAGUCACAUGAGGAUCACCCAUGUGCAUUUAUAUGCGCACUUAGAAGGGAGGUAGUUAUC [SameState2 Malc#23],36 nM
26,GCCUAACAUGAGGAUCACCCAUGUAGUGGGUUGUUAGGAUAUGGGCCGUGUAACACUGCACCAGAAGGAAUAGAAG [Atinanqu],382 nM
27,AAAAAACAUGAGGAUCACCCAUGUAAAAAAAACACAGGAUAUCCCUAAAAAAAAAAAAAAGGAGAAGGGUGAAAAA [Nob's Hobby 2 - Jieux - Same State 1],21.3 nM
